Assay results from patent CN110343173A (INST MICROBIOLOGY CAS, dated 2019).

Assays:
[1] = target: YFV China病毒 (E蛋白, 病毒颗粒上) (yellow fever virus, strain CNYF01/2016 …, UniProt Q1X881 286-683); assay: cell-based or functional assay
[2] = target: YFV CNYF01/2016 (YFV-China) 毒株膜蛋白E蛋白胞外区, C端6xHis标签, 大肠杆菌表达复性 (yellow fever virus, strain CNYF01/2016 …, UniProt Q1X881 286-683)
Chain of YFV CNYF01/2016 (YFV-China) 毒株膜蛋白E蛋白胞外区, C端6xHis标签, 大肠杆菌表达复性 (Q1X881 286-683, tags left off): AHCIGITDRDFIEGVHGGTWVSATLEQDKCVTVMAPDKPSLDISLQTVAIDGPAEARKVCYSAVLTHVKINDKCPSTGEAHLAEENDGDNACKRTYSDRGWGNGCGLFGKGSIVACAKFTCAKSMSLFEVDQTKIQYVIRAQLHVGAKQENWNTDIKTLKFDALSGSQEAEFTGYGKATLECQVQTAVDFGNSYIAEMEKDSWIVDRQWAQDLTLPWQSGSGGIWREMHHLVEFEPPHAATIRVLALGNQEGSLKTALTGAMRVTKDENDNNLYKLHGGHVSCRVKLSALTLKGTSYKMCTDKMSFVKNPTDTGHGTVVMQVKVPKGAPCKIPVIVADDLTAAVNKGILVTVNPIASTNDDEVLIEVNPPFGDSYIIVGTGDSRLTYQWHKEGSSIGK

Chain of YFV China病毒 (E蛋白, 病毒颗粒上) (Q1X881 286-683, tags left off): as above

B1: 人源单克隆抗体YD73 (antibody, V domains shown)
VH: QVQLVQSGAEVKKPGASVKVSCKASGYTFIAYGISWVRQAPGQGLEWMGWISAHNGNTNYAQKFQGRVTVTTDTTTRTAFMELRNLRSDDTAVYYCARAPWEYNYRSSGYYDSPYWGQGTLVTVSS
VL: EIVLTQSPGTLSLSPGERATLSCRASQSVVSTYLAWYQQKPGQAPRLLIYDTSTRATGIPDRFSGSGSGTDFTLTISRLEPEDFAVYYCQHYDSSPPWTFGQGTKVEIKR
[1]
  中和试验 IC50 (Vero细胞感染, FACS检测阳性细胞比例): 3.7 ng/mL
[2]
  Kd: 0.588 nM
